Results on 2 molecules are retold here after PMC3627599.

Data set [1] addresses T1, MAZ (Homo sapiens (pGEX-hMAZ), UniProt P56270 1-477).
T1 sequence: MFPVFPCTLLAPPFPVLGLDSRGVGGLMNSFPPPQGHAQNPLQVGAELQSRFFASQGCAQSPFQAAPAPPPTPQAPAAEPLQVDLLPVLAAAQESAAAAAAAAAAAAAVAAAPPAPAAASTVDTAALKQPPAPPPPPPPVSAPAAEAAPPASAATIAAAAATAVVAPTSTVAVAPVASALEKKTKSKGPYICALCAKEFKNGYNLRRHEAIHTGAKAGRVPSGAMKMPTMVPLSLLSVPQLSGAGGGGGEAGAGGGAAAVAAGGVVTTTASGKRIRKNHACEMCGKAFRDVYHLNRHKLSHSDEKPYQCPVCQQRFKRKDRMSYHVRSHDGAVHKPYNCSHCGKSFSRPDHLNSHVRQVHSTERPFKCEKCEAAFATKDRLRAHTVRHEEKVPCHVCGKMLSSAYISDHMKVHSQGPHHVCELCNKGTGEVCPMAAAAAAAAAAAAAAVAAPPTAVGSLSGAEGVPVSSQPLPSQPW
Description: double-filter binding.

Data set [2] concerns the target T1, MAZ. The data set is described as follows: competition.

In the case of GCGGTGTGGGAAGAGGGAAGAGGGGGAGGCAG (structured_DNA) [32R-3n], the Kd (commonly the free concentration of one partner at which half of the binding sites on the other are occupied at equilibrium, for simple one-to-one binding) with MAZ [1] was found to be 320 ± 2 nM.

As for GCGGTGTGGGAAGAGGGAAGAGGGGGAGGCAG (XNA, AMANY inserted after G10 and after A21; 2 LNA at 3' end) [3044], the binding result with MAZ [2] was “binds”.
